According to patent publication US20150111814A1:

Biological target: HIV-1 BaL envelope protein spike (Env) on virions (HIV-1 BaL strain)
Test: cell-based or functional assay

For “MVN-DAVEI8 (microvirin-linker-MPER fusion)”, the EC50 of virolysis (% p24 release) was 780 nM.
